Experimental data from the DeepSol protein solubility set.

Test: soluble on expression in E. coli; label from the status in PepcDB or PDB records

Q: For “MGHHHHHHSHMASGFIEIANKQGLTATLLPFGATLAKLTFPDKNGKNQDLVLGFDTIDEFEKDAASIGKTVGRVANRIKNSTLHFDGKQYTMTPNNGPHYLHGGPNGLGYRKWEVVRHAPESVSFSVRANEQDDGLPGDAKIDVTYTVNDRNQLIIEHHATCDTPGLLALTNHAYWNLDGSDTVAEHFLEMEADEFVEVDDTFCPTGAIRSVTDTGFDFRSGKQLKESGKDAEELLDLDNDLVITKKTPPSTPSTYLRFWSEKSGIELSITTSYPVIHLYASKFLDCKGKKGEHYKANKALAIEPQFHSAAPNFDHFPDVSLRPGDHYCQEIVYTFSHVN”, which “soluble on expression in E. coli” value is on record?
A: soluble

Q: For “MQSVLNLGKTTVTTCTFLRAASTSLQGKGPLKTNWKENVVYLYQFPRPANRQPNLSPYCLKIETFLRANRIKHEVVGTWLTLRQSPRGLLPFIELNGQQISDSQVIVWKLQKHFDLDDKLEGSDRGTARAVERMIDLSTNYALLVDKTVNNAHLLLARQVSNLPLPSFLTNYLAKGFSQTARKRVNGVLGKLDVAEQKELLRRDIRAIDDILGDKKFLFGDRITSVDCSVFGQIGAVFYLPYRQQISDLLEDDFPRVRAYCDRIRQHYYPEWRDD”, which “soluble on expression in E. coli” value is on record?
A: not soluble

Q: Which “soluble on expression in E. coli” value does the source give for “MPKSKSQKNKLRPRDSKGRFTPLAKAKRTVVSRSRSRSRSASRGARQSRSVGRPMSRRNSVRSISTHTAKSPSLVLVISGSPSPRRRRPSTRRSSSRRSVVRSVSRGSKGRRSSSRGSVYGRTGRSRSSKRSRSRSRPRTRSGSRSSSRSRSGSRRSSRRRSRHRSSSKARGRRASTAKKTPAKRRSRSRSQQKVKRSMSRKG” here?
A: soluble

Q: Which “soluble on expression in E. coli” value does the source give for “MSLGSGTSTQHHFAFQNAERAFKAAALIQRWYRRYVARLEMRRRCTWSIFQSIEYAGQQDQVKLHDFFSYLMDHFIPSSHNDRDFLTRIFTEDRFAQDSEMKKCSDYESIEVPDSYTGPRLSFPLLPDHATALVEAFRLKQQLHARYVLNLLYETKKHLVQLPNINRVSTCYSEEITVCGDLHGQLDDLIFIFYKNGLPSPERSYVFNGDFVDRGKDSVEILMILFAFMLVYPKEFHLNRGNHEDHMVNLRYGFTKEVMNKYKVHGKEILRTLQDVFCWLPLATLIDEKVLILHGGVSDITDLELLDKIERSKIVSTMRSGTQEEWRQVVDILWSDPMAQEGCKANTIRGGGCYFGPDVTQQLLQKYNMQFLIRSHECKPEGYEFCHNRKVLTIFSASNYYEVGSNRGAYVKLGPALTPHIVQYQANKVTHTLTMRQREGHHHHHH” here?
A: not soluble

Q: For “MAKSRTIYVCAECGGTSLKWQGKCPHCSAWNTLEETVESAAPSAGGHRYAPLAAASPVRSLSEIEARETPRQPTGLDEFDRVLGGGLVAGAVVLIGGDPGIGKSTLLLQALASLSATTKVLYVTGEESAEQVALRARRLGLQTGNVDLLAEIRLEAIQAAVSEQKPTVAVIDSIQTLYSGELTAAPGSVSQVRECAAQLTRLAKQTGIAIVMIGHVTKDGALAGPRVLEHIVDTVLYFEGDTHSSFRLVRAFKNRFGAVNELGVFAMTDRGLRGVANPSALFLSQHQQQVAGSCVLATQEGTRPLLVEVQALVDTSHAPNPRRLTVGLEGNRLAMLLAVMHRHAGVSTYDQDVFVNAVGGVRITEPAADLPVLLAIMSSLRDKPLPAGLVAFGEIGLAGEIRPAPRGQERLREAAKLGFSVALIPKANAPRQPIEGLEIWAVDRLDAALDKLRLEHHHHHH”, which “soluble on expression in E. coli” value is on record?
A: soluble

Q: For “MTDKLPFALYSRCVKAGKRFYYIDAKRDSKGNDYLVITESNSAEEGSAMTRHKVFLYREDFAKFTEAFLDVLKSFEKRSGVSGCEQAIGLSELEQSLSDMTTGVEGLAESSDSILEEDEPLKIDFDF”, which “soluble on expression in E. coli” value is on record?
A: not soluble

Q: Which “soluble on expression in E. coli” value does the source give for “MGSDKIHHHHHHMQLAQARNDNGERFVLVIEDDPTQARRLDDVNSVHALALTALDRKVGLAALIKEWPGDARVDAVALADKGQLLAPLDHPDPAHLLVTGTGLTHLGSAEGRDKMHRQMNEADQSDQPLTDSMKMFRKGLEGGKPAPGDFGVQPEWFYKGDGGIVMAPGEALRMPHFALDGGEEPEVAGLYLIDNDGVPRRIGYALGNEFSDHVTERENYLYLAHSKLRACSFGPTLLIDELPDDVQGTSRIRRGDEVLWEKPFISGEANMCHTLANLEAHHFKYAQFCRPGDVHVHFFGTATLSFSDGIIPQPGDVFEIDAKPFALPLRNPLSKDAVAPAPSVKPL” here?
A: not soluble

Q: Which “soluble on expression in E. coli” value does the source give for “MSLDQAIRRNPNVPVVVRGWLHKQDSSGMRLWKRRWFVLADYCLFYYKDSREEAVLGSIPLPSYVISPVAPEDRISRKYSFKAVHTGMRALIYNSSTAGSQAEQSGMRTYYFSADTQEDMNAWVRAMNQAAQVLSRSSLKRDMEKVERQAVPQANHTEGHHHHHH” here?
A: soluble

Q: With “MEEIIKPVSKELLKAELTEDRRLRMTNKSNNQIYIITHQNAPNVMREIGRLREIAFRAAGGGTGLSMDIDEYDTMEHPYKQLIVWNPEAEEILGGYRYLLGTDVRFDEAGAPILATSHMFHFSDAFIKEYLPQTIELGRSFVTLEYQSTRAGSKGLFALDNLWDGLGALTVVMPNVKYFFGKVTMYPSYHRRGRDMILYFLKKHFNDREELVTPMEPLILETSDEELRTLFCKDTFKEDYKILNTEIRKLGYNIPPLVNAYMSLSPTMRMFGTAINYEFGDVEETGILIAVDEILEDKRIRHIQTFIESHPDALKMPCESEGVFTPKVVTPQEGCCH” as the sequence, how does the “soluble on expression in E. coli” value read?
A: not soluble

Q: For “MSLEKAARHKQEVDTVQDKKVVNITGQGSTSRFFLPTALIRLRDASAQSIRTVLNQFFDRADDALFELADRAGTDQEQTRYFDAMRELRLRRKSMTVAVLHHVGQAFNDIGKFRPQSTVSSLDSVDEGFLSLLDHAELEQQVAIDNMVTKLRYQYSEALRHLSLRVRHLLPGVTLEDDQMPLCPEVLCGGLAAASKDLDVDIKARLIVLKLFDQLLVTSLGEVYHGANVTLIKEGVLPDSKAVRPVQTARSRQGAPVPPPSVVYREADWYGVGQPQAEVSAATFSQLSALLRQGQPAYGDGQAPASGGQWLQTDALLARLSQVQTAFGNDPGAPLVSLSQQLQPVLQNSSGQSLRPGQVDNDVINLVAMLFEFILDDRHLHSVMKSLLGRLQIPILKVALTDKNFFNRGGHPARKLLNEMALAATGWTEKRPGQRDPLLDKISAVVNRILAEFSTDVSLFNELLDDFNQFSDLDQRRSDLVEQRLRDAEEGRARHEQATADTKELLHEAMDGRLLPEPVQDMLNGPWSHYLHWLALHESTDSEAWQRAKTLTEQLIWTIDPVPLTATTHELLQQAIPQVIEQLRGALEGVAWDGLSVEMVVRDLELVHLDVFQRLVIAPSEAAGNDHAQIDDSQEAPAVRADAVPSDTTNTSADVSHPAPALPVAADDPKEAVVARVPEPTRAQPVVAEEWLAKADGLRVGCWLELNRDGSQIRCKLAAFIRAVDKYIFVNRSGAKVAEYRRNELAEMMAQGHIEILDDGLIFDRALESIIDNLRTSRREGHHHHHH”, which “soluble on expression in E. coli” value is on record?
A: not soluble

Q: For “MGSDKIHHHHHHMTDKGKNDLTSKAKDKARGNPEKPPYWFEIIVSDPQKRTGDPGSSSGYVSYQISTKTNNTSFYDNRGDPESIIVVHRRYSDLLLLHDILLNRFPTCIIPPLPDKKVFQYIAGDRFSQRFTQKRCHSLQNFLRRVSLHPDLSQSKVFKTFLVSKDWESHRKVLQDSLQPNKDEVTDAFMNAFKTVHKQNEEFTEIREKSDKLDRTVTKIDKLFHKVVKKNDSMSEDYTKLGSNLQELQELVTGENEELAAKLKIFNEGVTQLSYGLQDLTKYLDYEYIVDLKDLEHYIDSMRQLIKLKDQKQIDYEELSDYLTRSIKEKNNLISGYGGSNFFANKLEELAGINQEASRREKINKLEGKITSLTGELENAKKVADGFEQECLKEIDHFESVKTAEIKKSLGSLADHHIEFYERILEAWEKVDDSL”, which “soluble on expression in E. coli” value is on record?
A: not soluble

Q: Which “soluble on expression in E. coli” value does the source give for “MITRDFFLFLSKSGFLNKMARNWGSRVAAGKIIGGNDFNSSIPTIRQLNSQGLSVTVDHLGEFVNSAEVARERTEECIQTIATIADQELNSHVSLKMTSLGLDIDMDLVYENMTKILQTAEKHKIMVTIDMEDEVRCQKTLDIFKDFRKKYEHVSTVLQAYLYRTEKDIDDLDSLNPFLRLVKGAYKESEKVAFPEKSDVDENYKKIIRKQLLNGHYTAIATHDDKMIDFTKQLAKEHGIANDKFEFQMLYGMRSQTQLSLVKEGYNMRVYLPYGEDWYGYFMRRLAERPSNIAFAFKGMTKKLEHHHHHH” here?
A: soluble

Q: Which “soluble on expression in E. coli” value does the source give for “MSLKPRACVVVYPGSNCDRDAYHALEINGFEPSYVGLDDKLDDYELIILPGGFSYGDYLRPGAVAAREKIAFEIAKAAERGKLIMGICNGFQILIEMGLLKGALLQNSSGKFICKWVDLIVENNDTPFTNAFEKGEKIRIPIAHGFGRYVKIDDVNVVLRYVKDVNGSDERIAGVLNESGNVFGLMPHPERAVEELIGGEDGKKVFQSILNYLKREGGSHHHHHH” here?
A: soluble

Q: Which “soluble on expression in E. coli” value does the source give for “MAHHHHHHMVVFINGLPVLTFELKNSLTKQTVADAVVQYQTDRNPAELLFQLGRCIAHVAVDDAEVRFCTHLTGKTSWFLPFNQGWNSGAGNPPNPNGLRTDYLWKQVLAKESLANIIENYAQVIEEEEEDTNGRKRRTRKQIFPRFHQLRTVRALMRRSRADGVGKRYLIQHSAGSGKSNTIAWLAHQLVELKTAADNTQAQFDSVIVITDRRALDAQIARTIKAYDHVASIYGHSESADELRTFLAPGQEDHRHHGAEVPVHPDELGGTL” here?
A: not soluble

Q: With “MSLHLSNVILHQLCKNDQDELVVKLRPASLENDASTENLVAELHRVFHSKAGKGFGSFQSDSEFQFWLQEMRKGERDFYDFSQISANRLKEELIKYPFADEGILVFAEYQSLATDYLFIGILPMNQSLKVTEGLDISATDYLDITKMDIAARIDLSSYETDKESNRYLQYIKGRVGRKVADFFLDFLQADIGLDTKQQNLVLMQAVDDFCADSKLEKQEVNEYKKQVYNYCNEQIKSGEEVQISELSGELPPSQDGTSFMDFTKEQGYELEESFPGDRSTVRKLTKYVGAGGGLNISFDSLLLGERIFYDPETDTLTIKGTPPNLKDQLSRNLEHHHHHH” as the sequence, how does the “soluble on expression in E. coli” value read?
A: soluble

Q: Which “soluble on expression in E. coli” value does the source give for “MKLDDLNLFRQVVENGSYTAASRKTLIPVATITRRIQALEDSLDIRLLNRHARKLSLTEAGQKFYDECAPILATLVNTSEYLGEECRGAAGKLKIAAPSNLTKRMIQPILNKFMLLYPDISINLTMSNQPEQLDPTDWDIIFRVGKQRDSSLIARQIGSLEDILVASPSYLEKNSEPTHAQELHKHSLLKGNPLMRWRLTNKDGESVTITDAGRFEASELNVIRMACSNGLGITLMPDIMISQYLEEGSLIRVLSDWSANPRDIYMIYNYKDHQPEKVRLFIDFVSNHIPD” here?
A: not soluble

Q: For “MSLDSNTVAVNPDSLILKRFLKTNQLNGIMIVTGPDGKAQVFSNQSKVDGSPVSIKDYFPLASLQKLITGVAIQQLIDKGKLSLNTPLSKYYPQIENSENITIQNLLTHTSGLADRKEVPQQVLTTQEQQLDFSLTNYRVTYRKKWKYANINYALLAGIISQISGQNYATYVRQHFLTAGKGWHFKKYIQIKDKSKLAALSVMDQSTTWDKLSKEVTSTFGAGDYASRPVDYWKFMMAFINDQFVPVSEYQRSMKMTSKSYYGGLYISQKMLHANGGGFDTYSCFAYSNPKTKQVMVLFITNGKYKRVKSLAAKAFKLYADSYALRKNETSEGHHHHHH”, which “soluble on expression in E. coli” value is on record?
A: soluble

Q: For “SGIGTGHTSMNKGGKDVTLLELSVEKRRWRINMETSKIILEKMQSDDVLDGNRERSNEREGRDSLSEKLKSKQNLKDEEKLRYIKTGKSIQVEGTVRAKALRWVQ”, which “soluble on expression in E. coli” value is on record?
A: soluble

Q: Which “soluble on expression in E. coli” value does the source give for “MSLSTQTVTIKSLGAQGDGIAHCPDGPVYVPFALPGETVAIAKVKDQGTVMSITEASADRRDPVCRHFGPEGINGTCGGCSLQHLADQPYHAFKRELVVSALRSKGLTPPVDDLVICRPGERRRAVFAARKTEKGLLLGFSQANSHHIVAIEECPVTSPGIVSRFDAIRAIGLSMVANAEPFRITVLETLSGLDISVEGIKSVNDKQRRTLTETVLAMRGIARVSLSGEILIEPQKPIIEFGGIPVSPPAGGFTQATKQAEDAMAELMLAHVGKSKRIADLFCGSGTFALRLARIGRVHAVEAEDKALKALDFAARNTQGLKPVSVEKRDLFRRPLMTSELKNYDAVVFDPPRAGAEVQCKELARSTVKKIVAVSCNPLTLARDLAILTEGGYRVTRVTPVDQFLWSPHVEAVAVLEKEGHHHHHH” here?
A: soluble
